Test results as given in patent US20090175860A1 (Novartis, published 2009).
Numbering of substitutions follows the chain as printed.

B1: 04537 in IgG format (antibody, V domains shown)
VH: QVQLVQSGAEVKKPGESLKISCKGSGYSFSNYWIGWVRQMPGKGLEWMGFIFPDTSYTRYSPSFQGQVTISADKSISTAYLQWSSLKASDTAMYYCARVKLITDYWGQGTLVTVSS
VL: DIELTQPPSVSVAPGQTARISCSGDSLRSYFVSWYQQKPGQAPVLVIYDDDDRPSGIPERFSGSNSGNTATLTISGTQAEDEADYYCASWDTLSDVEVFGGGTKLTVLG
B2: 04537 (parental anti-cMet Fab antibody) (Fab, V domains shown)
VH: B1 VH
VL: B1 VL
notes: carries two C-terminal tags (FLAG and 6xHis)
B3: 04536 in IgG format (antibody, V domains shown)
VH: QVQLVQSGAEVKKPGASVKVSCKASGYTFTGYYMNWVRQAPGQGLEWMGIINPWTGNTNYAQKFQGRVTMTRDTSISTAYMELSSLRSEDTAVYYCARDPGFFYYTPSDLWGQGTLVTVSS
VL: DIELTQPPSVSVAPGQTARISCSGDSIGNKYVHWYQQKPGQAPVLVIYADSDRPSGIPERFSGSNSGNTATLTISGTQAEDEADYYCQAYDSSMLRVFGGGTKLTVLG
B4: 05091 in IgG format (antibody, V domains shown)
VH: B3 VH
VL: DIELTQPPSVSVAPGQTARISCSGDSIGNKYVHWYQQKPGQAPVLVIYADSDRPSGIPERFSGSNSGNTATLTISGTQAEDEADYYCQSYAHYHDIWVFGGGTKLTVLG
B5: 04687 in IgG format (antibody, V domains shown)
VH: QVQLVQSGAEVKKPGSSVKVSCKASGGTFSSYAISWVRQAPGQGLEWMGGIDPFGTANYAQKFQGRVTITADESTSTAYMELSSLRSEDTAVYYCARVYQDVWGQGTLVTVSS
VL: DIVMTQSPDSLAVSLGERATINCRSSQSILYGINNNFLGWYQQKPGQPPKLLIYWASTRESGVPDRFSGSGSGTDFTLTISSLQAEDVAVYYCQQYYNHPHTFGQGTKVEIKR
B6: 05098 in IgG format (antibody, V domains shown)
VH: B5 VH
VL: B5 VL with Q94L, Y97S, N98D, H99E, H101W
B7: 05097 in IgG format (antibody, V domains shown)
VH: B5 VH
VL: DIVMTQSPDSLAVSLGERATINCRSSQSILYGINNNFLGWYQQKPGQPPKLLIYWASTRESGVPDRFSGSGSGTDFTLTISSLQAEDVAVYYCQQYAFGWTFGQGTKVEIKR
B8: 05185 in IgG format (antibody, V domains shown)
VH: B5 VH with F54I, G55M, T56G, A57T, N58E
VL: B5 VL with Y97A, N98Y, H99E, H101N
B9: 04690 (parental anti-cMet Fab antibody) (Fab, V domains shown)
VH: QVQLQQSGPGLVKPSQTLSLTCAISGDSVSSNSAAWGWIRQSPGRGLEWLGRIYYRSKWVNDYAVSVKSRITINPDTSKNQFSLQLNSVTPEDTAVYYCARQGAVYPGPYGFDVWGQGTLVTVSS
VL: DIELTQPPSVSVAPGQTARISCSGDKLGSYFVYWYQQKPGQAPVLVIYDDDNRPSGIPERFSGSNSGNTATLTISGTQAEDEADYYCQSFGISNFYVFGGGTKLTVLG
notes: as for B2
B10: 04541 in IgG format (antibody, V domains shown)
VH: QVQLQESGPGLVKPGETLSLTCTVSGGSISSSSYYWNWIRQAPGKGLEWIGEIYFGWTYYNPSLKGRVTISVDTSKNQFSLKLSSVTAEDTAVYYCARGYEFHGYTTFDYWGQGTLVTVSS
VL: DIELTQPPSVSVAPGQTARISCSGDNIGSYYVYWYQQKPGQAPVLVIYDDNDRPSGIPERFSGSNSGNTATLTISGTQAEDEADYYCQSYDFPSIVFGGGTKLTVLG
B11: 04541 (parental anti-cMet Fab antibody) (Fab, V domains shown)
VH: B10 VH
VL: B10 VL
notes: as for B2

Tests used:
[1] = target: T1, full length human c-Met on cells (human, UniProt P08581 25-1390); experiment: cell-based or functional assay
[2] = target: rhesus c-Met on 4MBr-5 cells (rhesus); experiment: cell-based or functional assay
[3] = target: T1, full length human c-Met on cells; experiment: cell-based or functional assay; remark: listed apart in the source
[4] = target: rhesus c-Met on 4MBr-5 cells (rhesus); experiment: cell-based or functional assay; remark: listed apart in the source
[5] = target: T1, full length human c-Met on cells; experiment: flow cytometry, Fab on GTL-16 cells
Description: (§1) In order to further characterize the anti-c-Met antibodies, the affinity to full length human and cynomolgus c-Met is determined. GTL16, CHO cells overexpressing cynomolgus c-Met or rhesus 4 MBr-5 cells are washed, trypsinised, and suspended in PBS containing 3% FCS (3% FCS/PBS) at 4-C. 2-5×10⁵ cells/sample are resuspended in 140 μl of 3% FCS//PBS containing 5 μg/ml of purified anti-cMet Fabs or serial dilutions thereof. As a positive control 5 μg/ml of DO24 (mouse IgG2a), anti-human c-Met is used. The cells are incubated for 30-60 minutes at 4° C. before being pelleted by centrifugation for 2 min at 2000 rpm (716 g) at 4° C. and washed in 200 μl of in chilled 3% FCS/PBS. The cells are again pelleted by centrifugation and the PBS gently removed. Cells are resuspended in 100 μl of goat anti-human IgG (H+L) PE conjugated (Jackson Cat No. 109-116-088) diluted 1:200 in 3% FCS/0.02% NaN₃/PBS; For the positive control goat anti-mouse IgG (H+L)-PE conjugated (Jackson Cat No. 115-116-146) diluted 1:200 in 3% FCS/PBS is used. Samples are incubated in the dark for 30-60 min at 4° C. Following centrifugation and washing in 200 μl of 3% FCS/0.02%/NaN₃/PBS the cells are resuspended in 100 μl of 3% FCS/PBS and assayed using FACS-array or FACS-Calibur.

[6] = target: T2, cynomolgus c-Met on CHO cells (cynomolgus, UniProt A0A2K5UM36 25-1381, The natural precursor is cleaved into disulfide-linked alpha and beta subunits. It is given here as one mature chain, following the entry's CHAIN feature.); experiment: flow cytometry, Fab on CHO-cyno c-Met cells
T2 construct: also called cyno c-Met; CHO-cMet cyno
Description: as §1

[7] = target: T1, full length human c-Met on cells; experiment: flow cytometry, Fab titration on GTL-16 cells
Description: as §1

recombinant human c-Met [8] = target: T3, recombinant human c-Met (human, UniProt P08581 25-932, limits assumed); experiment: SPR (BIAcore), Fab on immobilised human c-Met
T3 construct: Soluble recombinant protein: immobilised on the CM5 chip in Biacore, in solution in the equilibrium titration; The precursor is cleaved into disulfide-linked alpha and beta subunits; also called Hepatocyte Growth Factor Receptor
Description: (§2) Using these clones, kinetic SPR analysis is performed on a CM5 chip (Biacore, Sweden) which had been coated with a density of ˜400 RU of either recombinant human c-Met, in 10 mM Na-acetate pH 4.5 using standard EDC-NHS amine coupling chemistry. […] PBS (136 mM NaCl, 2.7 mM KCl, 10 mM Na2HPO4 , 1.76 mM KH2PO4 pH 7.4) is used as the running buffer. The Fab preparations are applied in concentration series of 16-500 nM at a flow rate of 20 μl/min. Association phase is set to 60 s and dissociation phase to 120 s.

[9] = target: T4, rhesus c-Met on 4MBr-5 cells (rhesus); experiment: flow cytometry, Fab titration on rhesus 4MBr-5 cells
T4 construct: whole, on cells
Description: as §1

recombinant human c-Met [10] = target: T3, recombinant human c-Met; experiment: SPR (BIAcore), c-Met amine-coupled on CM5 chip, Fab 16-500 nM as analyte
Description: as §2

[11] = target: T4, rhesus c-Met on 4MBr-5 cells; experiment: cell-based or functional assay; remark: listed apart in the source
[12] = target: T1, full length human c-Met on cells; experiment: cell-based or functional assay; remark: listed apart in the source
[13] = target: T1, full length human c-Met on cells; experiment: cell-based or functional assay; remark: listed apart in the source

T1 sequence (P08581 25-1390): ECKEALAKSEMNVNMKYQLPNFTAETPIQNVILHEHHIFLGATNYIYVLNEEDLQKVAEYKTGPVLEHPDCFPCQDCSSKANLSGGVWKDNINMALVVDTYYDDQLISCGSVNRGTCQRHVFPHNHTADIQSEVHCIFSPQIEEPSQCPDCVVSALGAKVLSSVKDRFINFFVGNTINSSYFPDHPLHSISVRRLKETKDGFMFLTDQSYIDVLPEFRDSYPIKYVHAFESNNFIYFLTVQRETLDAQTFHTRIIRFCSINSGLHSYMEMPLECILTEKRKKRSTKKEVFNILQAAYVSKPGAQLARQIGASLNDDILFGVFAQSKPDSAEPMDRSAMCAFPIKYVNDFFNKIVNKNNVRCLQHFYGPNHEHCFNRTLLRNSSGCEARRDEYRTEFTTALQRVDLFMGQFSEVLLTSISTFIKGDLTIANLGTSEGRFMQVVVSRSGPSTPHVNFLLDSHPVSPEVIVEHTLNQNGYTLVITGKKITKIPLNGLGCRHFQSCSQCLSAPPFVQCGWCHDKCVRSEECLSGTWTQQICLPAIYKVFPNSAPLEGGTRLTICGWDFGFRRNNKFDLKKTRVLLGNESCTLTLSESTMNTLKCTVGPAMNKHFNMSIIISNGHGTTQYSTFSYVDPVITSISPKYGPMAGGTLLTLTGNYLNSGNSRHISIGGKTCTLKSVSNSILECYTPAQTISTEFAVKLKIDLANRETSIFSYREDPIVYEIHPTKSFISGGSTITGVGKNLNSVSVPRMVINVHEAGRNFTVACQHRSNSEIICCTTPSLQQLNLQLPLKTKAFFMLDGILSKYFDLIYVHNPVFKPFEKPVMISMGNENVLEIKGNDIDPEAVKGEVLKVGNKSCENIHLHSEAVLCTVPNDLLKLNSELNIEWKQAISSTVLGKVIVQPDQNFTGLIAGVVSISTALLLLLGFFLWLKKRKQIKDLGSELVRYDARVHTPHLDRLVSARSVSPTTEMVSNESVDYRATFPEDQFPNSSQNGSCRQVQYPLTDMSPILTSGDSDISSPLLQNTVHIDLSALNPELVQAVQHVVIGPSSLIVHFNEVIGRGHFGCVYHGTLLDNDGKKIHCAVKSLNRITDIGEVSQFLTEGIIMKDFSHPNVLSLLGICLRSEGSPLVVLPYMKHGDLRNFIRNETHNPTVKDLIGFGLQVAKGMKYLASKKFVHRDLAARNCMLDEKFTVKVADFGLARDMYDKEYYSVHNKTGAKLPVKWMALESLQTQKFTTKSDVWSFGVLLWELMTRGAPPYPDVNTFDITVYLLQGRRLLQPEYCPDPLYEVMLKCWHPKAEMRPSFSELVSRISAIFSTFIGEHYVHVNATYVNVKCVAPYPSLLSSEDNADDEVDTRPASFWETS
T3 sequence (P08581 25-932 limits assumed): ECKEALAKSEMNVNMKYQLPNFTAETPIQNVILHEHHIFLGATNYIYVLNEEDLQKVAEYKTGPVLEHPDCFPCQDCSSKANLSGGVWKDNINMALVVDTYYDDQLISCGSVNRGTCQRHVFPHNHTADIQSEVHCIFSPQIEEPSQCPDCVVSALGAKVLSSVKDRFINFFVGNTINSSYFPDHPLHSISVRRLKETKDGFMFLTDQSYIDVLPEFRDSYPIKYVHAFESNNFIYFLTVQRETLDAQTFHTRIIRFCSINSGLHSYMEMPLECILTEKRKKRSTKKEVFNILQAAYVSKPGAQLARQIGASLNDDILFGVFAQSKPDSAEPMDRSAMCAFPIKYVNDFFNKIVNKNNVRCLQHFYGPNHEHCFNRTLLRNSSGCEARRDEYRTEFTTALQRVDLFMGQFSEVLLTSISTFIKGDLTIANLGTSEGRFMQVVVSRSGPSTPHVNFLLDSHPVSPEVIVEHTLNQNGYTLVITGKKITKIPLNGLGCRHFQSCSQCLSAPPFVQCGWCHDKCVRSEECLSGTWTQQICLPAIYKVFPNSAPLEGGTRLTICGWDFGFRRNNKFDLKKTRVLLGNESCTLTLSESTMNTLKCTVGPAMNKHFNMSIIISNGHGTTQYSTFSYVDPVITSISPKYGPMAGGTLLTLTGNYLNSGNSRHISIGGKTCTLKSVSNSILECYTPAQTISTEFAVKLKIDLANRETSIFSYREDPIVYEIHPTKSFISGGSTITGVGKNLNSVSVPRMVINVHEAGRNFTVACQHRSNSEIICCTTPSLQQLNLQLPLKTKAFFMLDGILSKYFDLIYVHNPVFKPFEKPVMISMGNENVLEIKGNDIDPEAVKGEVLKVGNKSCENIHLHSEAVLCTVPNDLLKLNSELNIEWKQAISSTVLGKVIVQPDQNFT
T2 sequence (A0A2K5UM36 entry or part of it limits assumed): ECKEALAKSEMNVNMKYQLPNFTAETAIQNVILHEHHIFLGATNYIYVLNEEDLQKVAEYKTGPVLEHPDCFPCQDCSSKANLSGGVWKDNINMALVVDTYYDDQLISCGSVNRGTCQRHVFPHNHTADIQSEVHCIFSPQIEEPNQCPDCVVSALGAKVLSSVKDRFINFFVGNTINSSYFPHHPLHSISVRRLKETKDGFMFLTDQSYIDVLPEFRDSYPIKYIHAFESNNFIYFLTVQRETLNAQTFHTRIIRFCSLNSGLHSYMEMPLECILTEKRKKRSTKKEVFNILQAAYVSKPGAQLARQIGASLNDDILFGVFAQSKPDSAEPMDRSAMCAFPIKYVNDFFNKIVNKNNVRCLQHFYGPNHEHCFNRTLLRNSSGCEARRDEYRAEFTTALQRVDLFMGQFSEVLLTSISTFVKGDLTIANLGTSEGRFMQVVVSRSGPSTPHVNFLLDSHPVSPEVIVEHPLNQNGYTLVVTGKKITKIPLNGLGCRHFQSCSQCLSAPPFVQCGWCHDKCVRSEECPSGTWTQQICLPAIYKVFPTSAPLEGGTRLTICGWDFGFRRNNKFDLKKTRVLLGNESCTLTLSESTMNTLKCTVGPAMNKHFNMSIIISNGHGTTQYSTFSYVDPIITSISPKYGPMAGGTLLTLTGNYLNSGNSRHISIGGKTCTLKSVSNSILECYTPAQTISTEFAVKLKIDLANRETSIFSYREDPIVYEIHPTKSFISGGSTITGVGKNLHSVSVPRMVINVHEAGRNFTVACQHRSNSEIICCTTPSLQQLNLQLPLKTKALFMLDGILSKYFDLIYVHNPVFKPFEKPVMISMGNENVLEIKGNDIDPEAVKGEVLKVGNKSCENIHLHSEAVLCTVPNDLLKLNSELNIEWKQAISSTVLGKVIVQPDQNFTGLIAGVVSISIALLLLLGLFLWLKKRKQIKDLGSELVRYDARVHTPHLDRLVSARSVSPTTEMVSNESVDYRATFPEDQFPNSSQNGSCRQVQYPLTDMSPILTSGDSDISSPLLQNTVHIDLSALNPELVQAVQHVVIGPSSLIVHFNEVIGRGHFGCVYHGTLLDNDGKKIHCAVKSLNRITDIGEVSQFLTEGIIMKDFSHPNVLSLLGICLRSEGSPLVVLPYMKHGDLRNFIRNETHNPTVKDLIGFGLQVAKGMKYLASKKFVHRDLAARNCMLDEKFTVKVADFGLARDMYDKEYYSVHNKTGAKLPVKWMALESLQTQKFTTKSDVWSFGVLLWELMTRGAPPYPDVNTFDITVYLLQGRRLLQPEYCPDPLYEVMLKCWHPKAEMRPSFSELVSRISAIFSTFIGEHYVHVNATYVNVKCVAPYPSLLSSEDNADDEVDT

Binder	EC50 [nM] Inhibition of HGF driven migration NCI-H441 [1] [nM]	EC50 [nM] Inhibition of HGF driven proliferation 4MBr-5 [2] [nM]	EC50 [nM] NCI-H441 Migration IgG [3] [nM]	EC50 [nM] 4Mbr-5 Proliferation IgG [4] [nM]	EC50 [nM] Inhibition of HGF driven proliferation 4MBr-5 in 10% serum [11] [nM]	EC50 [nM] Inhibition of HGF driven migration NCI-H441 in 1% serum [12] [nM]	EC50 [nM] Inhibition of HGF stimulated c-Met autophosphorylation in A549 [13] [nM]	also measured
B1	0.14	150	0.14	150				
B2								Kd [5]: 1.5 nM; Kd [6]: 12.7 nM; Kd [7]: 2.6 nM; Kd (recombinant human c-Met [8]): 1.7 nM; Kd [9]: 0.1 nM; Kd (recombinant human c-Met [10]): 1.7 nM
B3	0.61	4	0.61	4				
B4					1.3	0.61	0.193	
B5	1.68	6	1.68	6				
B6					0.5	0.73	0.419	
B7					1.6	0.76	0.166	
B8					0.13	1.2	0.219	
B9								Kd [7]: 1.1 nM; Kd [9]: 0.1 nM; Kd (recombinant human c-Met [10]): 66 nM
B10	0.27	200	0.27	200				
B11								Kd [5]: 1.7 nM; Kd [6]: 0.6 nM; Kd [7]: 0.5 nM; Kd (recombinant human c-Met [8]): 2.6 nM; Kd [9]: 0.1 nM; Kd (recombinant human c-Met [10]): 2.6 nM
